The source of these data is publication doi:10.1101/2023.08.25.554718 (2023).

Assay [1] addresses T1, CX3CR1 nucleosome (human core histones, wild type) (human, UniProt P04908 1-124; O60814 1-124; P68431 1-136; P62805 1-103). The assay is described as follows: with scFv.
Assay [2] concerns the target T1, CX3CR1 nucleosome (human core histones, …).

Read-outs that look alike come from different tables or passages of the source.

B1: MBP-DBDC/EBPα (protein)
chain: MHLQPGHPTPPPTPVPSPHAAPALGAAGLPGPGSALKGLAGAHPDLRTGGGGGGSGAGAGKAKKSVDKNSNEYRVRRERNNIAVRKSRDKAKQRNVETQQKVLELTSDNDRLRKRVEQLSRELDTLRGIFRQLPESSLVKAMGNCA
Broadly, the Kd is the equilibrium constant for the complex coming apart. For the molecule B1, the Kd was determined as 1500 nM in assay [1] and 1700 nM in assay [2].
